# In publication PMC8919193:
# pKd: −log10 of the molar value.
# What was measured:
# [1] = target: Alexa Fluor 488-labeled H2BK120ub nucleosome, H2A(L65C), H3K79Nle (UniProt P0CG47); assay: other fluorescence titration
# [2] = target: unmodified nucleosome, H3K79Nle, Alexa Fluor 488 on H2A(L65C) (human) (UniProt P62807); assay: FRET or BRET
# [3] = target: unmodified and H2BK120ub nucleosomes; assay: FRET or BRET
substance,measurement,setting,value
DOT1Lcat (human DOT1L residues 1–416) (from UniProt Q8TEK3 1-416) (domain or fragment),pKd,[1],6.92
"DOT1Lcat(F326A, C45A, C75A, C179A, N324C), Atto647N-labeled (from UniProt Q8TEK3 1-416) (domain or fragment)",pKd,[2],7.42
"Atto647N-labeled DOT1Lcat(C45A, C75A, C179A, N324C) (from UniProt Q8TEK3 1-416) (domain or fragment)",pKd,[3],7.44 to 7.49
